Patent publication US6670189B2, “Fumonisin detoxification compositions and methods” (priority 1994, dated 2003)

Key:
[1] = Hydrolysis of fumonisin B1 by commercial esterases and hydrolases; format: biochemical; parameters: key: − = no hydrolysis; ± = trace amount of hydrolysis; + = incomplete hydrolysis; ++ = incomplete hydrolysis; +++ = complete hydrolysis; conditions: assay pH 5.2; overnight at 37° C. with 1 mg/ml fumonisin
Method: (§1) Analytical thin-layer chromatography was carried out on 100% silanized C18 silica plates (Sigma #T-7020; 10×10 cm; 0.1 mm thick) by a modification of the published method of Rottinghaus (Rottinghaus, G. E., Coatney, C. E., and Minor, H. C., A rapid, sensitive thin layer chromatography procedure for the detection of fumonisin b-1 and b-2, J Vet Diagn Invest, 4, 326 (1992), and herein incorporated by reference).
(§2) Sample lanes were pre-wet with methanol to facilitate sample application. After application of from 0.1 to 2 μl of aqueous sample, the plates were air-dried and developed in MeOH:4% KCl (3:2) or MeOH:0.2 M KOH (3:2) and then sprayed successively with 0.1 M sodium borate (pH 9.5) and fluorescamine (0.4 mg/ml in acetonitrile). Plates were air-dried and viewed under long wave UV.
The fumonisin esterase isolated from E. spinifera and R. atrovirens was compared with other known esterases from various sources as supplied by commercial vendors.

FB1 Hydrolase activity = experiment: Effect of various treatments on modification of FB1 by E. spinifera esterase (culture filtrates); format: biochemical, Exophiala spinifera; parameters: key: − = no hydrolysis; ± = trace amount of hydrolysis; + = incomplete hydrolysis; ++ = incomplete hydrolysis; +++ = complete hydrolysis; conditions: treatment 0.01 mg/ml, 16 hr, 37° C., pH 5.2; then incubated with FB1 overnight at 37° C.
Method: as §1, §2
The esterase isolated from E. spinifera was then subjected to other treatments, including proteases, to determine whether and how the enzyme would function in various environments.

Molecule | FB1 hydrolysis [1] | FB1 Hydrolase activity (FB1 Hydrolase activity)
Fumonisin esterase (protein) APTVKIDAGMVVGTTTTVPGTTATVSEFLGVPFAASPTRFAPPTRPVPWSTPLQATAYGPACPQQFNYPEELREITMAWFNTPPPSAGESEDCLNLNIYVPGTENTNKAVMVWIYGGALEYGWNSFHLYDGASFAANQDVIVVTINYRTNILGFPAAPQLPITQRNLGFLDQRFALDWVQRNIAAFGGDPRKVTIFGQSAGGRSVDVLLTSMPHNPPFRAAIMESGVANYNFPKGDLSEPWNTTVQALNCTTSIDILSCMRRVDLATLMNTIEQLGLGFEYTLDNVTVVYRSETARTTGDIARVPVLVGTVANDGLLFVLGENDTQAYLEEAIPNQPDLYQTLLGAYPIGSPGIGSPQDQIAAIETEVRFQCPSAIVAQDSRNRGIPSWRYYYNATFENLELFPGSEVYHSSEVGMVFGTYPVASATALEAQTSKYMQGAWAAFAKNPMNGPGWKQVPNVAALGSPGKAIQVDVSPATIDQRCALYTHYYTELGTIAPRTF | +++ | –
Protease K: protease used to treat the culture filtrate (protein, UniProt P06873 106-384, looked up) Proteinase K: AAQTNAPWGLARISSTSPGTSTYYYDESAGQGSCVYVIDTGIEASHPEFEGRAQMVKTYYYSSRDGNGHGTHCAGTVGSRTYGVAKKTQLFGVKVLDDNGSGQYSTIIAGMDFVASDKNNRNCPKGVVASLSLGGGYSSSVNSAAARLQSSGVMVAVAAGNNNADARNYSPASEPSVCTVGASDRYDRRSSFSNYGSVLDIFGPGTSILSTWIGGSTRSISGTSMATPHVAGLAAYLMTLGKTTAASACRYIADTANKGDLSNIPFGTVNLLAYNNYQA | – | +
